Assay results published in patent US6905817B1, “Ret-independent signaling pathway for GDNF” (Licestia Ltd., priority 1998, dated 2005).
Entries after “also recorded” stand apart in the source; their conditions may differ.

Assays:
[1] = molecular target: T1, GFRα1 of the Ret-negative human SHEP neuroblastoma cell line (human) (UniProt P56159); test: anti-GFRα1 immunoprecipitate from the Triton X-100 insoluble fraction of SHEP cells, Western blot with pan-Src antibodies; lane 1 min of 100 ng/ml GDNF
T1 sequence (GPI anchor, looked up): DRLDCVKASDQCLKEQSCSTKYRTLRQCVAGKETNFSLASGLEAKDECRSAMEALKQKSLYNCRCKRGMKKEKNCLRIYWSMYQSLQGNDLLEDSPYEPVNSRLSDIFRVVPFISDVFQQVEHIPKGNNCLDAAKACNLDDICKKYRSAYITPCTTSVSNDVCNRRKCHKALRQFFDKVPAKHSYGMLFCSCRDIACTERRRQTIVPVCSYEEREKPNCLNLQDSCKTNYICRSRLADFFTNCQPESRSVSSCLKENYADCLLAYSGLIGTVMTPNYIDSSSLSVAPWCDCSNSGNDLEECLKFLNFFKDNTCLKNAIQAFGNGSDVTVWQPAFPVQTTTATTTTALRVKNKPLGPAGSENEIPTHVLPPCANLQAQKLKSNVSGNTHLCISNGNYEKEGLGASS

[2] = molecular target: T1, GFRα1 of the Ret-negative human SHEP neuroblastoma cell line (human); test: anti-GFRα1 immunoprecipitate from the Triton X-100 insoluble fraction of SHEP cells, Western blot with pan-Src antibodies; lane 7 min of 100 ng/ml GDNF
[3] = molecular target: T1, GFRα1 of the Ret-negative human SHEP neuroblastoma cell line (human); test: anti-GFRα1 immunoprecipitate from the Triton X-100 insoluble fraction of SHEP cells, Western blot with pan-Src antibodies; lane 0 min GDNF (reference lane)
[4] = molecular target: T1, GFRα1 of the Ret-negative human SHEP neuroblastoma cell line (human); test: anti-GFRα1 immunoprecipitate from the Triton X-100 insoluble fraction of SHEP cells, Western blot with pan-Src antibodies; lane 30 sec of 100 ng/ml GDNF
[5] = tested on: GFRα2^−/− DRG neurons; test: GDNF-evoked [Ca^2+]i changes, confocal microscopy, GFRα2^−/− DRG neurons; type: cell-based, mouse; details: pre-treatment 10 μM U-73122
Experimental: (§1) DRG from embryonic day 18 (E18) mice were treated with trypsin (Worthington), non-neuronal cells removed by preplating, and about 95% pure neurons cultured on poly-ornithine-laminin-coated glass coverslips in Ham's F14 medium (Imperial Laboratories) with serum substitute containing NGF, BDNF and NT-3 (all from PeproTech, 2 ng/ml if each) for at least 1 day before measurement. Neurotrophins were extensively washed out before GDNF application. GDNF was from PeproTech and donated by Cephalon, Inc. Ret-deficient mice (Schuchardt et al., 1994) were identified from heterozygote matings by the absence of kidneys and PCR-based genotyping. GFRα2-deficient mice were obtained from homozygote matings (Rossi et al., 1999).
(§2) [Ca^2+]i was measured using a Bio-Rad MRC-1024 confocal microscope equipped with an argon-krypton laser. The cells were loaded with 10 μM Calcium Green-1AM (Molecular Probes), a membrane permeable Ca^2+ dye, by 30 min incubation in serum free cell-culture media at 37 ° C. and 5 % CO2. After loading, the neurons were kept at room temperature in Dulbecco's PBS solution contained 20 mM HEPES (pH=7.4) for at least 20 min prior to the experiments. All compounds were applied to the bath by a peristaltic pump. 6 kD Heparin (Sigma) and Alexa 568 nm fluorescent dye (Molecular Probes) were loaded into the cells using Molecular Probes' pinocytotic influx loading reagent basically according to the manufacturer instructions. […] Cell injection was performed using Eppendorf microinjection system. The average intensity of fluorescence in the predefined ROI (Region Of Interest) was measured on-line using TimeCourse software from BioRad. The calibration of fluorescence traces was performed in vitro using Fmax and Fmin values obtained with the calcium calibration buffer kit (Molecular Probes). Because the calibration solutions may not reflect the intracellular environment, the experimental data are presented as delta [Ca^2+]i calculated using Kd=190 nM for Calcium Green-1.
Transgenic GFRα2 knock-out mice were produced in our laboratory. […]

[6] = tested on: Ret^−/− DRG neurons; test: GDNF-evoked [Ca^2+]i changes, confocal microscopy, Ret^−/− DRG neurons; type: cell-based, mouse; details: for GDNF-evoked [Ca^2+]i elevation in heparin injected neurons: 6kD heparin injected, versus solvent/saline injected control neurons
Experimental: as §1, §2

[7] = tested on: wild type mouse DRG neurons; test: GDNF-evoked [Ca^2+]i changes, confocal microscopy with Calcium Green-1AM, wild type DRG neurons; type: cell-based; details: for change in [Ca^2+]i: 100 ng/ml, heat-inactivated at 98° C. for 15 min
Experimental: as §1, §2

[8] = molecular target: T1, GFRα1 of the Ret-negative human SHEP neuroblastoma cell line (human)
[9] = molecular target: T2, GPI-anchored GDNF family receptor α1 (GFRα1) of mouse E18 DRG neurons (mouse) (UniProt P97785); test: cell-based or functional assay
T2 sequence (GPI anchor, looked up): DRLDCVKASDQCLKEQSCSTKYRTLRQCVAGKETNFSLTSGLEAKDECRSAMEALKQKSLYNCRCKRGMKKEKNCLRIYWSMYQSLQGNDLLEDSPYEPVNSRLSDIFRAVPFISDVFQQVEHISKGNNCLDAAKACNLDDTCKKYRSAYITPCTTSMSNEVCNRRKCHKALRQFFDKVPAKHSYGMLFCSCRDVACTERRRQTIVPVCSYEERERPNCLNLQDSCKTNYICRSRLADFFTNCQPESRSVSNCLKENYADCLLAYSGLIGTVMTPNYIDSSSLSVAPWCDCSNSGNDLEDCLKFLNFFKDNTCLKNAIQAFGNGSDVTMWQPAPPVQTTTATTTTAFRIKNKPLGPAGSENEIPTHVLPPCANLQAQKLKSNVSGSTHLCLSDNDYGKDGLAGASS

[10] = molecular target: T1, GFRα1 of the Ret-negative human SHEP neuroblastoma cell line (human); test: cell-based or functional assay

Molecule: GFRα1-coupled Src-type kinase of SHEP cells, co-migrating with p62Yes (from UniProt P07947 2-543) (enzyme)
- fold (pan-Src band in the anti-GFRα1 immunoprecipitate, relative to 0 min) [1]: 1.5 fold
- fold (pan-Src band in the anti-GFRα1 immunoprecipitate, relative to 0 min) [2]: 1.2 fold
- fold (pan-Src band in the anti-GFRα1 immunoprecipitate, relative to 0 min) [3]: 1 fold
- fold (pan-Src band in the anti-GFRα1 immunoprecipitate, relative to 0 min) [4]: 1.5 fold

Molecule: COc1ccc2c(c1)CC[C@@H]1[C@@H]2CC[C@]2(C)[C@@H](NCCCCCCN3C(=O)C=CC3=O)CC[C@@H]12 [U-73122]
- GDNF-evoked release of Ca^2+ from internal stores after pre-treatment [5]: inhibited release of Ca^2+ from the internal stores
- GDNF-evoked long-lasting [Ca^2+]i elevation / Ca^2+ release after pre-treatment ([6]; pre-treatment U-73122 (10 μM)): completely abolished; also recorded: inhibited release of Ca^2+ from the internal stores
- GDNF-evoked [Ca^2+]i elevation after pre-treatment ([7]; pre-treatment with U-73122): resulted in abolishing of the effect of GDNF; also recorded: resulted in the abolishing of the effect of GDNF

Molecule: heparin
- GDNF-evoked [Ca^2+]i elevation in heparin injected neurons [6]: did not evoke an increase in [Ca^2+]i
- GDNF-evoked [Ca^2+]i elevation in heparin injected neurons ([6]; listed as Heparin): did not significantly respond to GDNF application
- [Ca^2+]i response of neurons loaded by pinocytosis with heparin ([6]; heparin with Alexa dye, 100 nM GDNF or 10 μM ATP): did not respond either to 100 nM GDNF or to 10 μM ATP

Molecule: phosphatidylinositol-specific phospholipase C [PI-PLC]
- GDNF-evoked [Ca^2+]i elevation after pre-treatment ([6]; pre-treatment PI-PLC 1 U/ml for 1 hr at 37° C.): abolished the effect of GDNF; also recorded: did not affect [Ca^2+]i
- GDNF-evoked [Ca^2+]i elevation after pre-treatment ([7]; pre-treatment 1U/ml PI-PLC, GDNF 100 ng/ml): eliminates GDNF-evoked [Ca^2+]i elevation; also recorded: None of the pre-treated neurons responded

Molecule: C/C=C(/C)C(=O)O[C@H]1C(C)=C2[C@H]([C@@H]1OC(=O)CCCCCCC)[C@@](C)(OC(C)=O)C[C@H](OC(=O)CCC)[C@@]1(O)[C@H]2OC(=O)[C@@]1(C)O [thapsigargin]
- change in [Ca^2+]i on thapsigargin treatment ([6]; 5 μM, end of experiments, PI-PLC pre-treated neurons): [Ca^2+]i was transiently increased
- change in [Ca^2+]i on application of thapsigargin ([7]; 5 μM, applied at the end of the experiments): profound elevation in [Ca^2+]i
- GDNF-evoked [Ca^2+]i elevation after pre-treatment ([7]; pre-treatment 5 μM thapsigargin): abolished the effect of GDNF; also recorded: resulted in the abolishing of the effect of GDNF

B1: Glial cell line-derived neurotrophic factor (GDNF) (ligand, UniProt P39905 78-211, looked up, species assumed)
Glial cell line-derived neurotrophic factor: SPDKQMAVLPRRERNRQAAAANPENSRGKGRRGQRGKNRGCVLTAIHLNVTDLGLGYETKEELIFRYCSGSCDAAETTYDKILKNLSRNRRLVSDKVGQACCRPIAFDDDLSFLDDNLVYHILRKHSAKRCGCI
- in vitro kinase activity co-precipitated with anti-GFRα1 antibodies from the Triton X-100 insoluble fraction of SHEP cells, fold relative to untreated cells; lane 0 min (reference lane) [8]: 1 fold
- in vitro kinase activity co-precipitated with anti-GFRα1 antibodies from the Triton X-100 insoluble fraction of SHEP cells, fold relative to untreated cells; lane 30 sec of 100 ng/ml GDNF [8]: 12 fold
- in vitro kinase activity co-precipitated with anti-GFRα1 antibodies from the Triton X-100 insoluble fraction of SHEP cells, fold relative to untreated cells; lane 1 min of 100 ng/ml GDNF [8]: 10 fold
- in vitro kinase activity co-precipitated with anti-GFRα1 antibodies from the Triton X-100 insoluble fraction of SHEP cells, fold relative to untreated cells; lane 7 min of 100 ng/ml GDNF [8]: 7 fold
- [Ca^2+]i elevation in Ret^-/- DRG neurons (confocal microscopy, Calcium Green-1) (% of the neurons) [9]: 60 to 70
- Src-type kinase activity in co-precipitates with anti-GFRα1 antibodies from Triton X-100 insoluble fractions of SHEP cells [10]: 12 fold

B2: Heat-inactivated GDNF: GDNF heat-inactivated at 98° C. for 15 min, used as specificity control (protein, UniProt P39905 78-211, looked up)
Glial cell line-derived …: SPDKQMAVLPRRERNRQAAAANPENSRGKGRRGQRGKNRGCVLTAIHLNVTDLGLGYETKEELIFRYCSGSCDAAETTYDKILKNLSRNRRLVSDKVGQACCRPIAFDDDLSFLDDNLVYHILRKHSAKRCGCI
modifications: heat-inactivated
- change in [Ca^2+]i ([6]; prolonged application, heat-inactivated, 100 ng/ml): did not respond with [Ca^2+]i elevations
- change in [Ca^2+]i [7]: did not evoke any changes of basal [Ca^2+]i
- change in [Ca^2+]i ([7]; heat-inactivated): did not evoke changes in [Ca^2+]i
